Laboratory results taken from patent publication US20250145690A1 (US Dept. of Health and Human Services, published 2025).
Positions count from the first letter of the chain named.

Experiments:
Assay in all cases: bead flow cytometry, AUC minus CD4
[1] = molecular target: T1, HCoV-229E spike protein (Sino Biological 40605-V08B) (HCoV-229E, UniProt P15423 16-1115)
T1 sequence: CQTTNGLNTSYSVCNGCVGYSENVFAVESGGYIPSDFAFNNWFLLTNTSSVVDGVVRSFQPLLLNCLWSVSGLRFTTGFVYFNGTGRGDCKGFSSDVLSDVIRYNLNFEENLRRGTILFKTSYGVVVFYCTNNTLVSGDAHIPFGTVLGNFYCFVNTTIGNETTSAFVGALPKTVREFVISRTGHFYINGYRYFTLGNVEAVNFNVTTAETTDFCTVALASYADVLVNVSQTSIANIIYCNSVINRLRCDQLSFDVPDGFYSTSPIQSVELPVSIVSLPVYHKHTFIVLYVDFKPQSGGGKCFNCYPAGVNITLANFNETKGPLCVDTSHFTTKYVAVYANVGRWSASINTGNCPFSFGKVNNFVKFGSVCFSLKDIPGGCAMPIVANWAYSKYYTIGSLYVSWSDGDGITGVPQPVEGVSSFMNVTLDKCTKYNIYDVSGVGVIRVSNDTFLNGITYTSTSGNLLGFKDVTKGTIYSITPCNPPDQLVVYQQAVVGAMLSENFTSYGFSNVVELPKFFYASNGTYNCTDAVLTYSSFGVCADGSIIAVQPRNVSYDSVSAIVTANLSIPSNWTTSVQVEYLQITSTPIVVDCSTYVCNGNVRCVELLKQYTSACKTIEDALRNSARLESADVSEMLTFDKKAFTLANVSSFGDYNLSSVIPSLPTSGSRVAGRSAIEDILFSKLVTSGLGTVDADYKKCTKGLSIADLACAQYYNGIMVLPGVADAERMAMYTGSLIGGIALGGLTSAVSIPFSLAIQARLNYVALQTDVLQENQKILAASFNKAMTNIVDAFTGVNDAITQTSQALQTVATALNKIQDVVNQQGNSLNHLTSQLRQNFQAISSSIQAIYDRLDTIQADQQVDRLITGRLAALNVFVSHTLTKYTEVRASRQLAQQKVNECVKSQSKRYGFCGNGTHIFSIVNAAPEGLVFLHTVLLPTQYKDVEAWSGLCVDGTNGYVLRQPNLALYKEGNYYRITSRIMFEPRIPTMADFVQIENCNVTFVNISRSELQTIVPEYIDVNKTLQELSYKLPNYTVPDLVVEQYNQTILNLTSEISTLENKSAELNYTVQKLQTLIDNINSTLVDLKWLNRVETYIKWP

[2] = molecular target: T2, HCoV-NL63 spike protein (Sino Biological 40604-V08B) (HCoV-NL63, UniProt Q6Q1S2 19-1296)
T2 sequence: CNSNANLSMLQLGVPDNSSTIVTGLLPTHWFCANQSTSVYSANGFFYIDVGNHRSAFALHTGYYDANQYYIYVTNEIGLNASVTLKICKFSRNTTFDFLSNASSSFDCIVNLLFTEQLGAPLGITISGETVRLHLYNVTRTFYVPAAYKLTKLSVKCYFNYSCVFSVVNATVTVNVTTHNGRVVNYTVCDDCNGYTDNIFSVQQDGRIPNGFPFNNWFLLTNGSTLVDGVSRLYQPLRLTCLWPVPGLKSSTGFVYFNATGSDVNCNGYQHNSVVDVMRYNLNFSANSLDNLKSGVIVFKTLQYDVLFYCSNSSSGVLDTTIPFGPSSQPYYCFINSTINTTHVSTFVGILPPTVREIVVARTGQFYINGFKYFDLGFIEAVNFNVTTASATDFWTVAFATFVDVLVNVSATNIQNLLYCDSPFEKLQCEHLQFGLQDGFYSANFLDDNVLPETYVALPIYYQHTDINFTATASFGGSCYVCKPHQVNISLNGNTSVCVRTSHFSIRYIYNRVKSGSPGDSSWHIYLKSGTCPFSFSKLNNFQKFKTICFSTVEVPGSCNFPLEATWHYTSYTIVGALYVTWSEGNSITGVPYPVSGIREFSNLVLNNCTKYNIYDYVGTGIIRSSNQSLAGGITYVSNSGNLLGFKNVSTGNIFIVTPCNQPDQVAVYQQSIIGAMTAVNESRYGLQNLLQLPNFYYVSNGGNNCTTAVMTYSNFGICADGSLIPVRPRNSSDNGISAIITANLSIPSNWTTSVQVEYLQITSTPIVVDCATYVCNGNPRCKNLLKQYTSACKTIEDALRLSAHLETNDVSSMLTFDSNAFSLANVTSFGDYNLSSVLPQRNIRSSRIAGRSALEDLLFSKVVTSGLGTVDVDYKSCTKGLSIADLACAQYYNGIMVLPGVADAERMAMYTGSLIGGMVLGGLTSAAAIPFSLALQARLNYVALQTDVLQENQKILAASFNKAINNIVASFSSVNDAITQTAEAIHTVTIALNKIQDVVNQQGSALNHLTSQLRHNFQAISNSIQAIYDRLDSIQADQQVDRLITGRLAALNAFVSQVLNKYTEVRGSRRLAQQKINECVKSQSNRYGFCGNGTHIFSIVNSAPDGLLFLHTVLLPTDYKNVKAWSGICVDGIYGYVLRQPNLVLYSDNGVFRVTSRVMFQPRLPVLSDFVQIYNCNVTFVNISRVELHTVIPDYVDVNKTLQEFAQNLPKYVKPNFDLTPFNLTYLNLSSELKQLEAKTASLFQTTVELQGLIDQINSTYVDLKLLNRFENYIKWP

[3] = molecular target: SARS-CoV-2 spike receptor binding domain (RBD), recombinant (SARS-CoV-2, UniProt P0DTC2 319-541)
[4] = molecular target: SARS-CoV-2 spike N-terminal domain (NTD), recombinant (SARS-CoV-2, UniProt P0DTC2 14-305)

Measured: binding result

B1: COV57-38 (antibody, V domains shown)
VH: QVQLVESGGGVVQPGRSLRLSCEASGFNFNNYGMHWVRQAPGKGLEWVAVISYEGSKKYYEDSVRGRFTISRDFSKNTLYLQMNSLRAEDTAVYYCAKANEIFWLGQFKNDALDFWGQGTMVTVSS
VL: QSVLTQPPSASGTPGQRVAVSCSGSSSNIGTNFVNWYQHLPRTAPKLLIYRDNQRPSGVPDRFSGSKSGTSASLAISGLQSEDEADYYCAVWDDSLNGQVFGGGTKVTVL
no binding (tested: 200 µg/mL): all assays above

B2: COV57-34 (antibody, V domains shown)
VH: QVQLVQSGTEVKKPGSSVKVSCRASGGTLSSYSVSWVRQAPGQGLEWMGRIIPILDKKTYAQKYQGRVTIIADTSTSTVYMELSSLKSDDSAVYYCTTFDYDTSGQRDQHDYWGQGTPVTVSS
VL: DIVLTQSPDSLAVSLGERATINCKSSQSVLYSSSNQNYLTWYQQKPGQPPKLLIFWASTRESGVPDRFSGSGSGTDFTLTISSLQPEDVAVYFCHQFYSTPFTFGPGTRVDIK
no binding (tested: 200 µg/mL): all assays above

B3: COV57-13 (antibody, V domains shown)
VH: B2 VH with D89E, P118L
VL: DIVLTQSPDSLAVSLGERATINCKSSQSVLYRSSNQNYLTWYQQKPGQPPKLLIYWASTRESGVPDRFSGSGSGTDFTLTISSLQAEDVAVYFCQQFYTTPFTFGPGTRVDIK
no binding (tested: 200 µg/mL): all assays above

B4: COV44-74 (antibody, V domains shown)
VH: QVQLVQSGAEVKKPGASVKVSCKASGYTFSSYYMNWVRQAPGQGLEWVGLISPSAGYTAYAQMFQGRVTMTRDTSTSTVYMELSSLRSEDTAVYYCARVAVAGPNDYWGQGTLVTVSS
VL: EIVLTQSPGTLSLSPGERATLSCRASQSISSSYLAWYQQKPGQAPRLVILAASTRATGIPDRFSGSGSGTDFTLTISRLEPEDFALYYCQHYRSSPPLWTFGQGTKVEIR
no binding (tested: 200 µg/mL): all assays above

B5: COV23-01 (antibody, V domains shown)
VH: QVTLKESGPVLVKPTETLTLTCTVSGFSLSNTKMGVSWIRQPPGKALEWLAHIFSNDRKSYTTSLKSRLTISEDTSKSQIVLTMTNMDPVDTATYYCARIGAGGTYNFYYYMDVWGKGTTVTVSS
VL: EIVLTQSPATLSLSPGERATLSCRASQSVSSYLAWYQQKPGQAPRLLIYDASNRATGIPARFSGSGSGTDFTLTISSLEPEDFAVYYCQQRSLYYTFGQGTKLEIK
no binding (tested: 200 µg/mL): all assays above

B6: COV44-37 (antibody, V domains shown)
VH: QVQLVQSGAEVKKPGASVMLSCRASGYTFINDYMHWVRQAPGEGFEWMGIINPTGDGTKFAQKFQGRVTMTRDSSTTTVHMELRSLTSGDTAVYFCATGGRQSAFDIWGQGTVVIVSS
VL: DIVMTQSPLSLPVTPGESASISCRSSQSLLQNNGYNYLDWYLQKPGQSPQLLIYLGSYRASGVPDRFSGSGSGTDFTLKISRVEAEDVGVYYCVQAQQAPPLYTFGQGTKLQIK
no binding (tested: 200 µg/mL): all assays above

B7: COV49-54 (antibody, V domains shown)
VH: EVQLVESGGGLVQPGGSLRLSCAASGFIVSSNYMSWVRQAPGKGLEWVSMIYSGGSTVYADSVKGRFTISRDISKNTLYLQMNSLRAEDTAVYYCALETFDYWGQGTLVTVSS
VL: DIQMTQSPSSLSASVGDRVTITCRASQGITNHLAWYQQKPGKVPKLLIYAASTLQSGVPSRFSGSGYGTDFTLTISSLQPEDVASYYCQKYDSAPRTFGQGTKVEIK
no binding (tested: 200 µg/mL): all assays above

B8: COV77-09 (antibody, V domains shown)
VH: EVQLVESGGGLVQPGRSLTLSCSGSGFTFGDYSMSWVRQAPGKGLEWLGFIRSQTYGGTTQYAASVQGRFTILRDDSKSIAYLQMNSLKTEDTAVYYCTRNYGVGDYWGQGTLVTVSS
VL: DIVMTQSPASLAVSLGERATIHCRSSLSVLNSSNNKNYLAWYQQKAGQPPKLLMYWASTRESGVPERFSGSGSGTDFTLTISSLEAGDVAVYYCQQYYDKLSLTFGGGTKVEIK
no binding (tested: 200 µg/mL): all assays above
